From article PMC4657049
pKd: −log10 of the molar value.

Biological target: biotinylated eLtaS protein (extracellular domain of LtaS of S. aureus) (S. aureus 8325-4) (UniProt Q2G093)
Test: SPR; biotinylated eLtaS immobilised on Sensor Chip SA; C3 and C3b injected at 300, 100, 30, 10 ug/ml; global kinetic fit

UniProt Q2G093, sequence (Q2G093 whole entry, the tested form may be a part): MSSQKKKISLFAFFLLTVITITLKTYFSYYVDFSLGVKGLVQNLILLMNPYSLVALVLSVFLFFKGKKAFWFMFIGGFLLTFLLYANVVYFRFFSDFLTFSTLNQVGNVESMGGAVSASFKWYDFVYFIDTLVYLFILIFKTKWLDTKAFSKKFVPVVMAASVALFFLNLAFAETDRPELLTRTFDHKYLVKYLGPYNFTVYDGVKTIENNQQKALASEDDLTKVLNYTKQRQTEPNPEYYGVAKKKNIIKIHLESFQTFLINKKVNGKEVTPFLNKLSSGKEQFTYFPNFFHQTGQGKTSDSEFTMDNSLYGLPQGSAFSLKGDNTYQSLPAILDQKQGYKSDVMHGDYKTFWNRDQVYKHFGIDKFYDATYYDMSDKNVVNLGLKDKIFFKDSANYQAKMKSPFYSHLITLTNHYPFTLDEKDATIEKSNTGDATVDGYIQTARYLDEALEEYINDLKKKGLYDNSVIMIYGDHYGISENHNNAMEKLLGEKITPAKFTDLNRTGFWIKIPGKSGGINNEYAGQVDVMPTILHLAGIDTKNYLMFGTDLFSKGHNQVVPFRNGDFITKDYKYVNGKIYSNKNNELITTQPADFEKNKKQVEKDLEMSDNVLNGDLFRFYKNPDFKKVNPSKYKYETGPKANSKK

Row | Substance | pKd | koff | kon
1 | human complement C3 (from UniProt P01024 23-667; P01024 672-1663) (natural protein) | 9.16 | 0.00149 s⁻¹ | 2.17e+06 M⁻¹ s⁻¹
2 | human complement C3b (from UniProt P01024 23-667; P01024 749-1663) (domain or fragment) | 9.26 | 0.00198 s⁻¹ | 3.63e+06 M⁻¹ s⁻¹
